How the values were obtained:
[1] = system: GST fusion protein containing the first 70 amino acids of p53 (GST-p531-70)
[2] = target: GST-hUpf11019-1118 (GST fused to the carboxyl-terminal region of hUpf1, amino acids 1019-1118) (UniProt Q92900)
[3] = system: GST-p531-70(S15A)
[4] = target: PHAS-I/4E-BP1 protein (UniProt Q13541)
Chain of PHAS-I/4E-BP1 protein (Q13541 whole entry): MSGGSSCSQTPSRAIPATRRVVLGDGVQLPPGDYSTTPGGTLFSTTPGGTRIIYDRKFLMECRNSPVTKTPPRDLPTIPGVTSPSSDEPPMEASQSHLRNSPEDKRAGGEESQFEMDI

Chain of GST fusion protein containing the first 70 amino acids of p53 (GST-p531-70) (chain, as listed by the source): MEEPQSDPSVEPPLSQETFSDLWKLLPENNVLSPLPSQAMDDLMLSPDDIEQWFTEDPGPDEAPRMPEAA
Chain of GST-hUpf11019-1118 (GST fused to the carboxyl-terminal region of hUpf1, amino acids 1019-1118) (Q92900 1019-1118): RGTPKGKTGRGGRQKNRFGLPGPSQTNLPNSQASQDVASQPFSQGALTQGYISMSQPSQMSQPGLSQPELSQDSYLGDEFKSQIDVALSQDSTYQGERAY

Substance	specific kinase activity in immune complex kinase assay [1]	phosphorylation of substrate in immune complex kinase assay [2]	phosphorylation of substrate in immune complex kinase assay, compared with GST-hUpf11019-1118 [1]	specific kinase activity in immune complex kinase assay (ratio of 32P incorporation into substrate to level of HA-tagged kinase) [1]	phosphorylation of substrate in immune complex kinase assay [3]	phosphorylation of substrate in immune complex kinase assay [4]
HA-tagged wild-type ATM (HA-ATMWT)	the specific kinase activity of HA-ATXWT towards GST-p531-70 was significantly higher than that of HA-ATM	phosphorylated by both ATM and ATX	–	–	–	–
HA-tagged wild-type ATX (HA-ATXWT)	–	phosphorylated by both ATM and ATX, with the latter protein kinase showing the higher specific catalytic activity	GST-p531-70 was more avidly phosphorylated by ATX than was the GST-hUpf11019-1118 substrate	the specific kinase activity of ATXWT was approximately 3.5-fold higher than that of ATMWT	nearly abolished	poorly phosphorylated
